# From the nanobody polyreactivity screen of Harvey et al. (2022)
# Test: yeast display, Sf9 membrane polyspecificity reagent, FACS + sequencing; frameworks hold sequencing errors
# Summary of the method: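 Synthetic nanobody libraries on Saccharomyces cerevisiae BJ5465 were galactose-induced for 36–48 hours, stained 1 hour at 4 °C with 10% biotinylated, detergent-solubilized Sf9 membrane reagent and enriched on streptavidin microbeads. FACS then separated cells into low and high (top ~1%) gates by anti-HA (expression) and streptavidin (reagent binding) fluorescence. Genes were colony-PCR amplified, MiSeq 2 × 250 sequenced and CDR-length filtered. A clone's polyreactivity label is that of its gate of origin.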
row,Sequence,polyreactivity (PSR sort gate)
1,QVQLVESAGGLVQAGGSLRLSCAASGIILYYYAMGWYRHAPGKERELVAAISSGGNTYYADSVKGRFTISRDNAKNTVYLQMNSLKPEDTAVYYCAAVTVIGGEYDYWGQGTQVTVSS,low polyreactivity
2,QVQLVESAGGLVQAGGSLRLSCAASGLTFSIYALGWYRQAAGKERELVAAITGRGGRTYYADSVKGRFPISRDNAKNTVYLQMNTLKPDDTAVYYCAARYRGTDFDYWGQGTQVTVSS,high polyreactivity
3,QVQLVESAGGLVQAGGSLRLSCAASGLTFVRYGMGWYRQAPGKERELVAAITSDDSTYYADSVKGSFTISRDNAQNTVYLQMNSLNPEDTAVYYCAARYTLYDTGESSRTYTGFIYWGLGTQVTVSS,low polyreactivity
4,QVQLVESAGGLVQAGGSLRLSCAASGNFGYNAIAWNRQAPGKETELVAAITSSGTSTYYADSVKGRLTISRDNAKNTVYLQMNSLKPEDTAVYYCAALPSGTWTGFGYWGQGTQVTVSS,low polyreactivity
5,QVQLVESAGGLVQAGGSLRLSCAASGRIFNSNAMGWYRQAPGKERELVASITSRGDSTFYADSVKGRFTISRDTAKNTVYLQMNSLKPEDTAVYYCAANGLYYRTPPVYSYDYWGQGTQVTVSS,low polyreactivity
6,QVQLVESAGGLVQAGGSLRLSCAASGRIFPYNVIGWYRQAPGKERELVAAISSGGTTDYADSVKGRFTISRDNAKNTVYLQMNSLKPEDTAVYYCAATYVYWTWGYDYWGQGTQVTVSS,low polyreactivity
7,QVQLVESAGGLVQAGGSLRLSCAASGRIYGIYAMGWYRQAPGKERELVASITDGTITNYADSVKGRFTISRDNAKNTVYLQKNSLKPEDTAVYYCAAGTQAHAYVVRPIEMDYWGQGTQVTVSS,low polyreactivity
8,QVQLVESAGGLVQAGGSLRLSCAASGRNLYQYAMGWYRQAPGKERELVAAITWNGGSTYYADSVKGRFTISRDNAKNTVYLQINSLKPEDTAVYYCAADSVRPWYAYKAHDYWGQGTQVTVSS,low polyreactivity
9,QVQLVESAGGLVQAGGSLRLSCAASGRTFCGNAMGWYRQAPGKERELVAAITSGGSTYYADSVKGRFTISRDNAKNTVYLQMNSLKPEDTAVYYCATRRIYKWYRYYYWGQGTQVTVSS,high polyreactivity
10,QVQLVESAGGLVQAGGSLRLSCAASGRTFIQYAMGWYRQAPGKERELVAVIRWSGGRTYYADTVKGRFTISRDNAKNTVYLQMNSLKPEDTAVYYCAKRSGSTFDWGQGTQVTVSS,high polyreactivity
11,QVQLVESAGGLVQAGGSLRLSCAASGRTFVGNAMGWYRQAPGTERELVADITWSGDITYYADSVKGRFTISRDNAKNTVYLQMNSLKPDDTAVYYCAADYHRRRTDYDYWGQGTQVTESS,low polyreactivity
12,QVQLVESAGGLVQAGGSLRLSCAASGRTLYRYAMGWYSQAPGKERELVAAIRWSGGSTYYADSVKGRFTISRDNAKNTVYLQMNSLKPEDTAVYYCNAGRSWRRTHYDYWGQGTQVTVSS,high polyreactivity
13,QVQLVESAGGLVQAGGSLRLSCAASGRTSDGYAMGWSRQAPGKERELVAGITEGGGDTYYADSVKGRFTISRDNAKNTVYLQMNSLKTEDTAVYYCAKDLRRYLSWWYRYPYDYWGQGTQVTVSS,low polyreactivity
14,QVQLVESAGGLVQAGGSLRLSCAASGRTSVIYAMGWYRQAPGKERELVASIRRGGSTSYADSVKGRFTISRDNAKNTVYLQMNSLKPEDTAVYYCARETLGGTYLGDYWGQGTQVTVSS,high polyreactivity
15,QVQLVESAGGLVQAGGSLRLSCAASGSILTSYAMGWYRQAPGKERELVAAINGSGGSTFYADSVKGRFTISRDNAKNTVYLQMNSLKPEDTAVYYCNTGGPRGTTYDYWGQGTQVTVSS,low polyreactivity
16,QVQLVESAGGLVQAGGSLRLSCAASGSLFSLYAMGWYRQAPGKERELVAAITQSGGTKFYADSVKGRFTISRDNAKNTVYLQMNRLKPEDTAVYYCAAEWYRCYVPLGVAGEYDYWGQGTQVTVSS,low polyreactivity
17,QVQLVESAGGLVQAGGSLRLSCAASGSTFGLNAMGRYRQAPGKERELVAAITRSGATTYYADSVKGRFTISRDNAKNTVYLKMNSLKPEDTAVYYCNKVYRPYTKRYYWGQGTQVTVSS,high polyreactivity
18,QVQLVESAGGLVQAGGSLRLSCAASGSTFTYKGMGWYRQAPGKERELVASISSRGGSTYYADSVKGRFTISRDNAKNTVYLQMNSLKPDDTAVYYCAAVARARARTPWLGRGYWGQVTQVTVSS,high polyreactivity
19,QVQLVESAGGLVQAGGSLRLSCAASGSTFYAYALGWYRQAPGKERELVAAISSDGTNYADSVKGRFTISRDNAKNTVYLQMNSLKPEDTSVYYCDADLLLYSSQDNDYWGQGTQVPVSS,low polyreactivity
20,QVQLVESAGGLVQAGGSLRLSCAASGSTLHYYAMGRYRQAPGKERELVAGISGSGGSTYYADSVKGRFTISRDNAKNTVYLQMNSLKPEDTAVYYCAADAYVSSQPMDYWGQGTQVTVSS,high polyreactivity
21,QVQLVESAGGLVQAGGSLRLSCAASGSTLYGYVMGWYRQAPGKERELVAAITWSSGYTYYADSVKGRFTISRDNAKITVYLQMNILKPVDTAVYYCAVRDRSPYGYYYWGQGTQVTVSS,low polyreactivity

row,Sequence,polyreactivity (PSR sort gate)
1,QVQLVESAGGLVQAGGSLRLSCAPSGFTFALYAMRWYRQAPGNERELVAANTRSGRTKYADSVKGRFTISRDNAKNTVYLQMNSLKPEDTAVYYCAALFRYYVTTRFNYWGQGTQVTVSS,high polyreactivity
2,QVQLVESAGGLVQAGGSLRLSCDASGRILKYYDIGWYRQAPGKEWELVAAISVSGTSTYYADSVKGRFTISRDNAKNTVYLQMNSLKPEDTAVYYCATATGRYSFDYWGQGTQVTVSS,low polyreactivity
3,QVQLVESAGGLVQAGGSLRLSCDASGRTFRYYVMGWYRQAPGNERELVAAISWSGCRTNYADSVKGRYTISGDNAKNTVYLQMNSLKPEDSAVYYCNAPRPALRRYDYWGQGTQVTVSS,high polyreactivity
4,QVQLVESAGGLVQAGGSLRLSCPASGSIFQPYAMGWYRQAPGKERELVAAINGRGGSTHYADSVKGRFTISRDNAKNTVYLQMNSLKPEDTAVYYCAARYYRDYRWYTYAYDYWGQGTQVTVSS,high polyreactivity
5,QVQLVESAGGLVQAGGSLRLSSAASGRIFLYYAMGWYRQAPGKEREFVAAITYIGGSTYYADSVKGRFTISRDNAKNTVYLQMNSLKPEDTAVYWGEGTQVTVSS,low polyreactivity
6,QVQLVESAGGLVQAGGSLSISCAASGLTLTRNAMGWYRQAPGKERELVAAISGRGGSTYYADSVKGRFTISRDNAKNTVYLQMNSLKPEDTAVYYCAATVQYSPIYDYWGQGTQVTVSS,high polyreactivity
7,QVQLVESAGGLVQAGGSLSLSCAASAFTYVCNRMGWNRQAPGKERELVAAITGSGSTNYADSVKGRFTISRDNAKNTVYLQMNSLKPEDTAVYYCATSDRQVKYDYWGQGTQVPVSS,low polyreactivity
8,QVQLVESAGGLVQAGGSLSLSCAASGGMFTGYAMGWDRQAPGTERELVAAINTGGNTYYADSVKGRFTISRDNAKNTVYLQMNSLKPEDTAVYYCAAVYFPRSNTARRYGYWGQGTQVTVSS,high polyreactivity
9,QVQLVESAGGLVQAGGSLSLSCAASGINFAWYVMGWYRQEPGKERELVAAITQSGGSTFYADSVKGRFTISRDNAKNTVYLQMNSLKPEDTAVYYCAAESRSTWIHSRDYWGQGTQVTVSS,low polyreactivity
10,QVQLVESAGGLVQAGGSLSLSCAASGITFYRYVMGWYRQAPGKERELVAAISVSGGRTYYADSVKGRFTISRDNAKNTVYLQMNSLKPEDTAVYYCAARWAGSKSATVQYDYWGQGTQVTVSS,high polyreactivity
11,QVQLVESAGGLVQAGGSLSLSCAASGTFYLYARGWYRQAPGKQRELVAAISGSGSTNYADSVKGRFTISRDNAKNTVYLQMNSLKPEDTAVYYCAAYQRYDSVTGARYEYDYWGQGTQVTVSS,low polyreactivity
12,QVQLVESAGGLVQAGGTLRLSCAASGRIIYRYGMGWYRQAPGKERELVASITRGGSTYYADSVKGRFTISRDNAKNTVYLQMNSLKPEDTAVYYCATKSSAGYDYWGQGTQVTVSS,low polyreactivity
13,QVQLVESAGGLVQAGGTLRLSCAASGSIFQFYAMGWYRHAPGKERELVAVITTSGVSTYYADSVKGRFTISRDNAKNTVYLQMNSLKPEDTGVYYCAARQWTSASYDYWGQGSQVTVSS,low polyreactivity
14,QVQLVESAGGLVQAGVSLRLSCAASGLTFVQYAMGWYIQAPGKERELVAAISRSGGSTYYADSVKGRFTISRDNAKNTVYLQMNSMKPEDTAVYYCNAVIWLTSSEYWGQGTQVTVSS,high polyreactivity
15,QVQLVESAGGLVQEGGSLRLSCAASGRTFYNAMGGYRQAPGKERELVAAISANGGSTTYADSVKGRFTISRDNAKNTVYLQMNSLKPEDTAVYYCNTYYWYSGSPYDYWGQGTQVTVSS,low polyreactivity
16,QVQLVESAGGLVQEGGSLRLSCAASGSTFPYYAMGWYRQAPGKERELVAAISQNGGSTYYADSVKGRFTISRDNAMNTVYLQMNRLKPEDTAVYYCNADGVGGEYRLSGYAYWGQGTQVTVSS,low polyreactivity
17,QVQLVESAGGVVQAGGSLRLSCAASGRIFGYNTMGWYRQAPGKERELVAAISGSGASTYYADSVKGRFTISRDNAKNTVYLQMNSLKAEDTAVYYCAAKAYYSTSPYHREHDSWGQGTQVTVSS,low polyreactivity
18,QVQLVESAGVLVQAGGSLRFSCAPSGIIFPQYAMGWYRQAPGKARELVAAITYSGDGTYYADSVKGRFTISRDNAKYTVYLLMYSLKPDDTAVYYCAAFPRDPYKEYDYWGQGTQLTVSS,low polyreactivity
19,QVQLVESAGYLVQAAASLRLSCAASGLIFVYYALGWYRQAPGKERELVAFITSVGSTYYGDSVKGRFTISRDNAKYTVYLQMNSVNPEDTAVYYCAAEWEFYGFDYWGQGTQVTVSA,low polyreactivity
20,QVQLVESAVGLVQAGGSLRLSSAASGFTFLNYAMGSYRQAPGKVRELVAAITWSGGNTYYADSVMGRFTISRDNAKNTVYLQMNSLKPEDTAVYYCAADYRARGKFYWGQGTQVTVSS,high polyreactivity
